In the supplement of paper PMC10065799, “High-throughput profiling of sequence recognition by tyrosine kinases and SH2 domains using bacterial peptide display” (eLife, 2023):

These sequences were tested against Hck (UniProt P08631) (assay: phosphorylation enrichment, bacterial display (enrichment ratio); higher = better substrate or ligand; peptides without Tyr show the background).
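Also: 11-residue human phosphosite peptides and single-mutation variants displayed on the E. coli surface, counted by deep sequencing, each peptide's frequency after selection divided by its frequency in the unselected input library; frequency after pTyr selection over input frequency; kinase dosed for 20-30% of maximal phosphorylation in three min.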

Chain of Hck (P08631 whole entry, looked up): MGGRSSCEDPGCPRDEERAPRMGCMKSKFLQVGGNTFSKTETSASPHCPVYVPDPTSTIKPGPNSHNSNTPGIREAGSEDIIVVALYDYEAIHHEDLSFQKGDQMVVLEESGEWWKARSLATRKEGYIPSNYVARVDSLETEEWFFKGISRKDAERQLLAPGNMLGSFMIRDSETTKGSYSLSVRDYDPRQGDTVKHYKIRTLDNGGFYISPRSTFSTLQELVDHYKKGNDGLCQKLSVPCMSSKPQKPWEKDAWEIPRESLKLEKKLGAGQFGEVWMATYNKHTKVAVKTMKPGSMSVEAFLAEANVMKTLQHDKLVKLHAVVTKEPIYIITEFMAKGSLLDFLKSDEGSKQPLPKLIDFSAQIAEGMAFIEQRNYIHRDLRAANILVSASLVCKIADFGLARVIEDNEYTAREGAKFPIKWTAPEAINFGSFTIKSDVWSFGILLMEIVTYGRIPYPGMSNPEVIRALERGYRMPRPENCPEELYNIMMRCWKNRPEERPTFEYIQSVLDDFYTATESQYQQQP

Row | Sequence | phosphorylation enrichment
1 | QSRSPYSSRHS [CDK13_Y415_R410Q] | 0.593
2 | RLLRGHDQSAF [HLA-C_Y137_Y137H_YF] | 0.566
3 | IVLEKYKLLPE [DHFR_Y157_D153V] | 0.458
4 | SSTASYFEAPG [RFX2_Y108] | 0.433
5 | TLPAFYMENFS [GLB1_Y552_G554E] | 0.523
6 | KGEDFYFVTCH [FHL1_Y149_C150Y_YF] | 0.503
7 | ILTFKYLQIPM [KIT_Y547_K550I_YF] | 0.453
8 | LDMSQYFRLFN [CPT2_Y217] | 0.885
9 | AVDDKYSRREE [SART1_Y685_I681V] | 0.533
10 | RHFTGCRIELQ [INSR_Y818_Y818C] | 0.613
11 | ASFGPNTRVQS [FOXL2_Y258_Y258N_YF] | 0.433
12 | SLALFYRKVFH [RBL1_Y792_YF] | 0.441
13 | SSNLYYRCLTA [CNGA3_Y169_W171C] | 0.807
14 | GCRSKYVGLWR [KCNQ1_Y184_G189R] | 0.36
15 | VFSSDYFSFVL [USP24_Y2138_YF] | 1.24
16 | MTFMFYRENLR [NLRP14_Y443_V441M_YF] | 0.518
17 | EFHRLYEEFTR [PIK3R1_Y467_D464H_YF] | 7.49

Row | Sequence | phosphorylation enrichment
18 | PQGVRYTYTID [DCX_Y103_I104T] | 0.601
19 | GYKVRYATGSI [FGFR1_Y210_W213G] | 0.434
20 | LEFAKYGSLRG [RET_Y809_V804L_YF] | 0.567
21 | HRAVEYLLMGI [RAD23A_Y197_T200M] | 0.552
22 | LSNPAYCLLLA [DDR1_Y513_R514C] | 0.855
23 | QDGFSYLSRQM [LDLR_Y847_P848L_YF] | 0.748
24 | YSPYDYQPCLA [TNS1_Y798] | 2.41
25 | DTQNSYRCATS [TSC1_Y304_G305R] | 0.42
26 | NSRYTYKLEVK [USH2A_Y3747] | 0.478
27 | IYGASYVPFAA [RBM47_Y541] | 7.75
28 | RCKSHYAAFSV [C1QTNF1_Y145] | 1.42
29 | NKKFHYRELPV [ERN2_Y860_H858Y_YF] | 0.332
30 | LSSEMYVKSYT [F5_Y2149] | 0.991
31 | RSAGKYDVYFI [MECP2_Y120_L124F] | 4.46
32 | CSTIHYNYMCN [TP53_Y234_T230S] | 0.399
33 | SYTDPYAQPPL [KMT2D_Y2378] | 0.473

These sequences were tested against Jak2 (UniProt O60674) in the same assay as above.
Chain of Jak2 (O60674 whole entry, looked up): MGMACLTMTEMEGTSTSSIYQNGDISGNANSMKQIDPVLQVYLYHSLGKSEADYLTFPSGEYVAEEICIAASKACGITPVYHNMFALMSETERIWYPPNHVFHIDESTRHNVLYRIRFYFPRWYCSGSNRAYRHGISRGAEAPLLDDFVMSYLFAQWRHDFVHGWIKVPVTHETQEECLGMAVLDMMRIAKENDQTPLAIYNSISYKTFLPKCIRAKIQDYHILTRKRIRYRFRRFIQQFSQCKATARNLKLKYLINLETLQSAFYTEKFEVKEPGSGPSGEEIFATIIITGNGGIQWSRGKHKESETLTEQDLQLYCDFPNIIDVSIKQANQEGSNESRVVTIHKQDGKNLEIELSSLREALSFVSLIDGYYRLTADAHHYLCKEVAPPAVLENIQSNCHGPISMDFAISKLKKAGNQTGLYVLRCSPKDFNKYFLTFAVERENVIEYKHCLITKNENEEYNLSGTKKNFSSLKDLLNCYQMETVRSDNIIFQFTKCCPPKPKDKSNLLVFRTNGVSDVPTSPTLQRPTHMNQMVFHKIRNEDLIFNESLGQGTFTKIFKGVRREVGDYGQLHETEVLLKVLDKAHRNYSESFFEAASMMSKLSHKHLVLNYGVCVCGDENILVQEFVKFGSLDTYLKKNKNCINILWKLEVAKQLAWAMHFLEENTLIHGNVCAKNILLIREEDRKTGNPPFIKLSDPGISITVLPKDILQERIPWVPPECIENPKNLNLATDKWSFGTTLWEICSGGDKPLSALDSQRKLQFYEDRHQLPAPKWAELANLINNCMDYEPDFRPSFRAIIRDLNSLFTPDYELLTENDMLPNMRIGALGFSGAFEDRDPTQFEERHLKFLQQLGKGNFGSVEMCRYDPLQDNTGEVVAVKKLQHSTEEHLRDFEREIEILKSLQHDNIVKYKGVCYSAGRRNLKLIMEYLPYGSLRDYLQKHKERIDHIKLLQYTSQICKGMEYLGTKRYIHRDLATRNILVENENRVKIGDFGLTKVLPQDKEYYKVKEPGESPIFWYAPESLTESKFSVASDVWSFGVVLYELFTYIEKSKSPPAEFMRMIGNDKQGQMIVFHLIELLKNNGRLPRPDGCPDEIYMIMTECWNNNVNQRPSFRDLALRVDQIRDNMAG

Row | Sequence | phosphorylation enrichment
34 | QSRSPYSSRHS [CDK13_Y415_R410Q] | 0.823
35 | RLLRGHDQSAF [HLA-C_Y137_Y137H_YF] | 0.732
36 | IVLEKYKLLPE [DHFR_Y157_D153V] | 0.809
37 | SSTASYFEAPG [RFX2_Y108] | 0.968
38 | TLPAFYMENFS [GLB1_Y552_G554E] | 1.37
39 | KGEDFYFVTCH [FHL1_Y149_C150Y_YF] | 1.49
40 | ILTFKYLQIPM [KIT_Y547_K550I_YF] | 1.02
41 | LDMSQYFRLFN [CPT2_Y217] | 4.15
42 | AVDDKYSRREE [SART1_Y685_I681V] | 0.679
43 | RHFTGCRIELQ [INSR_Y818_Y818C] | 0.884
44 | ASFGPNTRVQS [FOXL2_Y258_Y258N_YF] | 0.565
45 | SLALFYRKVFH [RBL1_Y792_YF] | 1.11
46 | SSNLYYRCLTA [CNGA3_Y169_W171C] | 1.5
47 | GCRSKYVGLWR [KCNQ1_Y184_G189R] | 0.395
48 | VFSSDYFSFVL [USP24_Y2138_YF] | 4.95
49 | MTFMFYRENLR [NLRP14_Y443_V441M_YF] | 1.32
50 | EFHRLYEEFTR [PIK3R1_Y467_D464H_YF] | 0.714

Row | Sequence | phosphorylation enrichment
51 | PQGVRYTYTID [DCX_Y103_I104T] | 1.05
52 | GYKVRYATGSI [FGFR1_Y210_W213G] | 0.456
53 | LEFAKYGSLRG [RET_Y809_V804L_YF] | 0.593
54 | HRAVEYLLMGI [RAD23A_Y197_T200M] | 0.921
55 | LSNPAYCLLLA [DDR1_Y513_R514C] | 1.49
56 | QDGFSYLSRQM [LDLR_Y847_P848L_YF] | 0.844
57 | YSPYDYQPCLA [TNS1_Y798] | 1.07
58 | DTQNSYRCATS [TSC1_Y304_G305R] | 0.612
59 | NSRYTYKLEVK [USH2A_Y3747] | 0.982
60 | IYGASYVPFAA [RBM47_Y541] | 2.11
61 | RCKSHYAAFSV [C1QTNF1_Y145] | 0.737
62 | NKKFHYRELPV [ERN2_Y860_H858Y_YF] | 0.372
63 | LSSEMYVKSYT [F5_Y2149] | 1.12
64 | RSAGKYDVYFI [MECP2_Y120_L124F] | 0.925
65 | CSTIHYNYMCN [TP53_Y234_T230S] | 0.656
66 | SYTDPYAQPPL [KMT2D_Y2378] | 0.681

These sequences were tested against MERTK (UniProt Q12866) in the same assay as above.
Chain of MERTK (Q12866 whole entry, looked up): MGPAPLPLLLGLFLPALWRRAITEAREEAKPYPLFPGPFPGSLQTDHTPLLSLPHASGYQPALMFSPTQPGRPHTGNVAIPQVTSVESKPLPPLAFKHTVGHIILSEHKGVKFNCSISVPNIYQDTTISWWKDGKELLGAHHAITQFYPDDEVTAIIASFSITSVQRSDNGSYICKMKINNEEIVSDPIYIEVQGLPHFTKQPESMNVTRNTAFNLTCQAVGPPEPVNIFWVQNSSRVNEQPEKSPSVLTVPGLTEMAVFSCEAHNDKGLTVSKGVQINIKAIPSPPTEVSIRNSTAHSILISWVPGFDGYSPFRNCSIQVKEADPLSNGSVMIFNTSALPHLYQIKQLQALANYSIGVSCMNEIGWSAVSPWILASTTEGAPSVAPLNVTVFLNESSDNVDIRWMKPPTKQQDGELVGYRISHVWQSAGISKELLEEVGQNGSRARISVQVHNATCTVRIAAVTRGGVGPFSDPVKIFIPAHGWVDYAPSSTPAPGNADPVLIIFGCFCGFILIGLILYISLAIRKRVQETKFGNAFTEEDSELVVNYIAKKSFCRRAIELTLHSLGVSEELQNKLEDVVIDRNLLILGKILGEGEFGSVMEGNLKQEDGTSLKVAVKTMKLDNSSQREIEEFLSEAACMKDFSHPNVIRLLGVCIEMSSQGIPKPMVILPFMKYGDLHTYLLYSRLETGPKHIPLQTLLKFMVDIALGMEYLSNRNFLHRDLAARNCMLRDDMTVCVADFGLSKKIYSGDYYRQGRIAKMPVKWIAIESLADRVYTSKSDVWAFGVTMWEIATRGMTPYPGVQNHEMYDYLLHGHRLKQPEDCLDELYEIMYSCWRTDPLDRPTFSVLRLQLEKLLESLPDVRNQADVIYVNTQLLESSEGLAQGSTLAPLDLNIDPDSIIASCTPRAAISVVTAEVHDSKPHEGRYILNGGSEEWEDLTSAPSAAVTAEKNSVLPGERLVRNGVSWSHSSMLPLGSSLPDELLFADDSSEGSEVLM

Row | Sequence | phosphorylation enrichment
67 | QSRSPYSSRHS [CDK13_Y415_R410Q] | 0.452
68 | RLLRGHDQSAF [HLA-C_Y137_Y137H_YF] | 0.421
69 | IVLEKYKLLPE [DHFR_Y157_D153V] | 0.386
70 | SSTASYFEAPG [RFX2_Y108] | 0.449
71 | TLPAFYMENFS [GLB1_Y552_G554E] | 0.947
72 | KGEDFYFVTCH [FHL1_Y149_C150Y_YF] | 0.491
73 | ILTFKYLQIPM [KIT_Y547_K550I_YF] | 0.371
74 | LDMSQYFRLFN [CPT2_Y217] | 0.755
75 | AVDDKYSRREE [SART1_Y685_I681V] | 0.426
76 | RHFTGCRIELQ [INSR_Y818_Y818C] | 0.421
77 | ASFGPNTRVQS [FOXL2_Y258_Y258N_YF] | 0.365
78 | SLALFYRKVFH [RBL1_Y792_YF] | 0.385
79 | SSNLYYRCLTA [CNGA3_Y169_W171C] | 1.89
80 | GCRSKYVGLWR [KCNQ1_Y184_G189R] | 0.394
81 | VFSSDYFSFVL [USP24_Y2138_YF] | 1.65
82 | MTFMFYRENLR [NLRP14_Y443_V441M_YF] | 0.526
83 | EFHRLYEEFTR [PIK3R1_Y467_D464H_YF] | 4.42

Row | Sequence | phosphorylation enrichment
84 | PQGVRYTYTID [DCX_Y103_I104T] | 0.338
85 | GYKVRYATGSI [FGFR1_Y210_W213G] | 0.32
86 | LEFAKYGSLRG [RET_Y809_V804L_YF] | 0.388
87 | HRAVEYLLMGI [RAD23A_Y197_T200M] | 0.471
88 | LSNPAYCLLLA [DDR1_Y513_R514C] | 5.79
89 | QDGFSYLSRQM [LDLR_Y847_P848L_YF] | 0.413
90 | YSPYDYQPCLA [TNS1_Y798] | 5.67
91 | DTQNSYRCATS [TSC1_Y304_G305R] | 0.466
92 | NSRYTYKLEVK [USH2A_Y3747] | 0.396
93 | IYGASYVPFAA [RBM47_Y541] | 6.3
94 | RCKSHYAAFSV [C1QTNF1_Y145] | 2.89
95 | NKKFHYRELPV [ERN2_Y860_H858Y_YF] | 0.306
96 | LSSEMYVKSYT [F5_Y2149] | 0.76
97 | RSAGKYDVYFI [MECP2_Y120_L124F] | 1.02
98 | CSTIHYNYMCN [TP53_Y234_T230S] | 0.375
99 | SYTDPYAQPPL [KMT2D_Y2378] | 0.52

Each sequence was assayed on c-Abl (mouse) in the same assay as above.

Row | Sequence | phosphorylation enrichment
100 | QSRSPYSSRHS [CDK13_Y415_R410Q] | 0.597
101 | RLLRGHDQSAF [HLA-C_Y137_Y137H_YF] | 0.653
102 | IVLEKYKLLPE [DHFR_Y157_D153V] | 0.676
103 | SSTASYFEAPG [RFX2_Y108] | 0.531
104 | TLPAFYMENFS [GLB1_Y552_G554E] | 1.2
105 | KGEDFYFVTCH [FHL1_Y149_C150Y_YF] | 0.9
106 | ILTFKYLQIPM [KIT_Y547_K550I_YF] | 0.637
107 | LDMSQYFRLFN [CPT2_Y217] | 0.92
108 | AVDDKYSRREE [SART1_Y685_I681V] | 0.478
109 | RHFTGCRIELQ [INSR_Y818_Y818C] | 0.665
110 | ASFGPNTRVQS [FOXL2_Y258_Y258N_YF] | 0.525
111 | SLALFYRKVFH [RBL1_Y792_YF] | 0.535
112 | SSNLYYRCLTA [CNGA3_Y169_W171C] | 0.896
113 | GCRSKYVGLWR [KCNQ1_Y184_G189R] | 0.409
114 | VFSSDYFSFVL [USP24_Y2138_YF] | 1.93
115 | MTFMFYRENLR [NLRP14_Y443_V441M_YF] | 0.879
116 | EFHRLYEEFTR [PIK3R1_Y467_D464H_YF] | 0.709

Row | Sequence | phosphorylation enrichment
117 | PQGVRYTYTID [DCX_Y103_I104T] | 0.605
118 | GYKVRYATGSI [FGFR1_Y210_W213G] | 0.478
119 | LEFAKYGSLRG [RET_Y809_V804L_YF] | 0.454
120 | HRAVEYLLMGI [RAD23A_Y197_T200M] | 0.665
121 | LSNPAYCLLLA [DDR1_Y513_R514C] | 0.912
122 | QDGFSYLSRQM [LDLR_Y847_P848L_YF] | 0.563
123 | YSPYDYQPCLA [TNS1_Y798] | 0.973
124 | DTQNSYRCATS [TSC1_Y304_G305R] | 0.593
125 | NSRYTYKLEVK [USH2A_Y3747] | 0.795
126 | IYGASYVPFAA [RBM47_Y541] | 9.26
127 | RCKSHYAAFSV [C1QTNF1_Y145] | 4.74
128 | NKKFHYRELPV [ERN2_Y860_H858Y_YF] | 0.407
129 | LSSEMYVKSYT [F5_Y2149] | 0.733
130 | RSAGKYDVYFI [MECP2_Y120_L124F] | 0.923
131 | CSTIHYNYMCN [TP53_Y234_T230S] | 0.411
132 | SYTDPYAQPPL [KMT2D_Y2378] | 0.666
